Assay results as given in PMC3153463.

Molecular target: H103C mutant of RAV-1 IN CCD (RAV-1 IN CCD_(H103C)), residues 53-199 (Rous-associated virus type 1 (RAV-1))
Experiment: cross-linking; engineered Cys103-Cys103 disulfide bond; denaturing SDS-PAGE in non-reducing conditions; mass spectrometry (MALDI-TOF) of tryptic peptides

Question: For “H103C mutant of RAV-1 IN CCD (RAV-1 IN CCD_(H103C)), residues 53-199 (domain or fragment)”, which stoichiometry N is on record?
Answer: 2
